This is an account of results in publication PMC8615523.

Targets include cpmCarmine185-186; cpmMaroon185-186; cpmMaroon196-186.
Assay in all cases: SEC; Ni-NTA eluates injected into a HiLoad 16/60 Superdex 200 pg column; elution with 30 mM Tris-HCl pH 7.4; absorbance at 280 nm

On to cpmCarmine185-186, for which the percent monomeric with cpmCarmine185-186 is 60%.

For the substance cpmMaroon185-186, in the assay with cpmMaroon185-186, the stoichiometry N – broadly, a count of units in the complex or per binding partner – is 2.

Turning to cpmMaroon196-186, the percent monomeric in the assay with cpmMaroon196-186 amounted to 70%.
